# Assay results as given in patent US20050164163A1 (MEDICAL RESEARCH COUNCIL, published 2005).
# Key:
# [1] = molecular target: T1, HCMV UL54 protein (HCMV DNA polymerase) (HCMV strain AD169, UniProt P08546 1-1242); assay: ELISA, UL102 coated (0 to 0.4 µg), UL54 added (0 to 0.6 µg), detected with antiserum 144
# T1 construct: mature; Purified from Sf cells infected with AcUL54
# T1 sequence: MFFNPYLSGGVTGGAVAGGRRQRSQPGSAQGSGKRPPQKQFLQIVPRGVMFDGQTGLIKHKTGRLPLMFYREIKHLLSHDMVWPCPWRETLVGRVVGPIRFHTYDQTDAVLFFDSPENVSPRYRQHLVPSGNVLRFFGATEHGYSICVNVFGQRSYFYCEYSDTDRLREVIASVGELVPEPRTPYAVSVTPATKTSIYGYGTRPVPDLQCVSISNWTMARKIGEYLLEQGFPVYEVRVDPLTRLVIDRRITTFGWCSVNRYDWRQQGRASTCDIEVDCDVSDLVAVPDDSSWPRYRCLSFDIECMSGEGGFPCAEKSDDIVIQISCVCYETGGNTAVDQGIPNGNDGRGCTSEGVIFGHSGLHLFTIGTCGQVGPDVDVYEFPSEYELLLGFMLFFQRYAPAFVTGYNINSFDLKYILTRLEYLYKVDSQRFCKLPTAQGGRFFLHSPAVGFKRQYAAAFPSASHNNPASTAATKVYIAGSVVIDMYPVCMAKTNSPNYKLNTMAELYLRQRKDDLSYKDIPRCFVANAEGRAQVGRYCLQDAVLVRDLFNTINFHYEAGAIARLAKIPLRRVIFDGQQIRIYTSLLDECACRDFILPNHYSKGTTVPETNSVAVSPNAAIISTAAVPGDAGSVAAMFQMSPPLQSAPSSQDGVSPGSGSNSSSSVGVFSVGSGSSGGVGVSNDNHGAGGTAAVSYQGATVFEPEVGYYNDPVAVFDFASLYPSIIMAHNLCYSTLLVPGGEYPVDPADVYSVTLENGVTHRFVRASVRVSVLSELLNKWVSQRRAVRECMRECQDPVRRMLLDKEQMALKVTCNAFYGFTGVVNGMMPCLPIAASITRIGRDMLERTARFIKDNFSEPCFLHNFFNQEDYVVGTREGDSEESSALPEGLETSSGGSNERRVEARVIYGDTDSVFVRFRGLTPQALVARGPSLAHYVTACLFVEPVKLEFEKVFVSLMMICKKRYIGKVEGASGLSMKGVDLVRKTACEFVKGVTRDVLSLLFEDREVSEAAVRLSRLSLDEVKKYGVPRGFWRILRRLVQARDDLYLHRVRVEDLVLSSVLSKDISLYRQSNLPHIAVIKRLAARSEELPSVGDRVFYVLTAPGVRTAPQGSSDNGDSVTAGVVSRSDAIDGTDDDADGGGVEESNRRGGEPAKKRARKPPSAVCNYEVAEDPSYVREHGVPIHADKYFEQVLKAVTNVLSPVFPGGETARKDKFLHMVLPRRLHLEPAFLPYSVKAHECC
# [2] = molecular target: T2, HSV-1 POL (UL30 protein, catalytic subunit of the HSV-1 DNA polymerase) (HSV-1, UniProt P04293 1-1235); assay: competition ELISA of FIG. 7: peptide incubated with POL 15 min, then added to UL8-coated wells
# T2 construct: mature; Purified from Sf cells infected with baculovirus AcUL30
# T2 sequence (looked up): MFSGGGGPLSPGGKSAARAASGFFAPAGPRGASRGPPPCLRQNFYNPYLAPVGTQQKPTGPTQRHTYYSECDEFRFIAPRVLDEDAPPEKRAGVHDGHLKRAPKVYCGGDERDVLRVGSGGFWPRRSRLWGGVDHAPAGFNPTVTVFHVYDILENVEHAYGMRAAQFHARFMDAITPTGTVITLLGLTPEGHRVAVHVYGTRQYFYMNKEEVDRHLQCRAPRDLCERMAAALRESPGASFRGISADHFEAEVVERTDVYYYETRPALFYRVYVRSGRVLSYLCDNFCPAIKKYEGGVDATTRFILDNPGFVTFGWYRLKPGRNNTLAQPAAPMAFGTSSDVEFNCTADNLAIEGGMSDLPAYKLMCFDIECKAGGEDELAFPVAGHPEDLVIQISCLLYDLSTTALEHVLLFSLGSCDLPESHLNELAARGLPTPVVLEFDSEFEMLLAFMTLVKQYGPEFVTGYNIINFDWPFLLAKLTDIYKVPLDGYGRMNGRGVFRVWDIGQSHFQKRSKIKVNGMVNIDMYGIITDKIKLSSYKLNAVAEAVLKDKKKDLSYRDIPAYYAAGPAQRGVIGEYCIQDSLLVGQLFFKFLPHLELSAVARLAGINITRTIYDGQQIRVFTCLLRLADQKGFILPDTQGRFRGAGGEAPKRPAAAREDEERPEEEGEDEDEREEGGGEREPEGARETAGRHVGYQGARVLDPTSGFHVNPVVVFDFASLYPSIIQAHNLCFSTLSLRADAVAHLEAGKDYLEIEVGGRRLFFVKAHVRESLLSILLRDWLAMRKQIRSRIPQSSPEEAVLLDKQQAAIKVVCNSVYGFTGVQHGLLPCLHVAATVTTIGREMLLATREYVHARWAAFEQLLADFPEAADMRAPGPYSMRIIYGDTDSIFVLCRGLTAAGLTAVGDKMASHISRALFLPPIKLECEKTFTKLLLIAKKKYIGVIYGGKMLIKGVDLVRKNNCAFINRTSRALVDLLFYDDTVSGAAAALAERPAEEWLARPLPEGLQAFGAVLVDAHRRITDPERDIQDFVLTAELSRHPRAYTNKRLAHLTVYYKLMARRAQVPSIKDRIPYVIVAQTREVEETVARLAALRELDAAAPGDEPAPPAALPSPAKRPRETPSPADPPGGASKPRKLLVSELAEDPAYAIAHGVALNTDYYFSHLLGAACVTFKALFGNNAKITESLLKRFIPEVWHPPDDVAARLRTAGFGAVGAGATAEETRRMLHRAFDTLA
# [3] = molecular target: T2, HSV-1 POL (UL30 protein, catalytic …); assay: competition ELISA: peptide incubated with POL, then added to UL8-coated wells; average of independent experiments
# [4] = molecular target: T2, HSV-1 POL (UL30 protein, catalytic …); assay: competition ELISA: peptide incubated with POL 15 min, then added to UL8-coated wells
binder,measurement,setting,value
"HCMV UL102 protein (other, mature; Purified from Sf cells infected with AcUL102; The 873-residue form follows Smith and Pari (1995)) MTAQPPLHHRHHPYTLFGTSCHLSWYGLLEASVPIVQCLFLDLGGGRAEPRLHTFVVRGDRLPPAEVRAVHRASYAALASAVTTDADERRRGLEQRSAVLARVLLEGSALIRVLARTFTPVQIQTDASGVEILEAAPALGVETAALSNALSLFHVAKLVVIGSYPEVHEPRVVTHTAERVSEEYGTHAHKKLRRGYYAYDLAMSFRVGTHKYVLERDDEAVLARLFEVREVCFLRTCLRLVTPVGFVAVAVTDEQCCLLLQSAWTHLYDVLFRGFAGQPPLRDYLGPDLFETGAARSFFFPGFPPVPVYAVHGLHTLMRETALDAAAEVLSWCGLPDIVGSAGKLEVEPCALSLGVPEDEWQVFGTEAGGGAVRLNATAFRERPAGGDRRWLLPPLPRDDGDGENNVVEVSSSTGGAHPPSDDATFTVHVRDATLHRVLIVDLVERVLAKCVRARDFNPYVRYSHRLHTYAVCEKFIENLRFRSRRAFWQIQSLLGYISEHVTSACASAGLLWVLSRGHREFYVYDGYSGHGPVSAEVCVRTVVDCYWRKLFGGDDPGPTCRVQESAPGVLLVWGDERLVGPFNFFYGNGGAGGSPLHGVVGGFAAGHCGGACCAGCVVTHRHSSGGGGSGVGDADHASGGGLDAAAGSGHNGGSDRVSPSTPPAALGGCCCAAGGDWLSAVGHVLGRLPALLRERVSVSELEAVYREILFRFVARRNDVDFWLLRFQPGENEVRPHAGVIDCAPFHGVWAEQGQIIVQSRDTALAADIGYGVYVDKAFAMLTACVEVWARELLSSSTASTTACSSSSVLSSALPSVTSSSSGTATVSPPSCSSSSATWLEERDEWVRSLAVDAQHAAKRVASEGLRFFRLNA",binding result,[1],binds
"IELVFTGVLAGVWGEGGKFV (Synthetic 20-residue peptide from HSV-1 UL8) [Peptide 7 (Table 2), UL8 amino acids 719-738]",IC50,[2],~1 µM
same,IC50,[3],2.25 µM
"VFTGVLAGVWGEGGKFVYPFDDKMSFLFA (Synthetic peptide, C-terminal 29 amino acids of HSV-1 UL8) [Peptide 5 (Table 2), UL8 residues 722-750]",binding result,[4],binds
